In US20200057058A1 (MIT, published 2020):

B1: 3xSP77.6k thin film (3x rcSso7d.SA-PNIPAM conjugate, PNIPAM Mn 77.6 kDa) (designed binder)
chain: MGSSHHHHHHSSGLVPRGSHMCATVKFTYQGEEKQVDISKIKIVARDGQYIDFKYDEGGGAYGYGWVSEKDAPKELLQMLEKQGGGGSGGGGSMATVKFTYQGEEKQVDISKIKIVARDGQYIDFKYDEGGGAYGYGWVSEKDAPKELLQMLEKQGGGGSGGGGSMATVKFTYQGEEKQVDISKIKIVARDGQYIDFKYDEGGGAYGYGWVSEKDAPKELLQMLEKQGG
modifications: maleimide end-functionalized PNIPAM (Mn 77.6 kDa) on the N-terminal Cys; film lightly crosslinked with glutaraldehyde
B2: 3xSP9.6k thin film (3x rcSso7d.SA-PNIPAM conjugate, PNIPAM Mn 9.6 kDa) (designed binder)
chain: B1 chain
modifications: maleimide end-functionalized PNIPAM (Mn 9.6 kDa) on the N-terminal Cys; film lightly crosslinked with glutaraldehyde
B3: 3xSP56.1k thin film (3x rcSso7d.SA-PNIPAM conjugate, PNIPAM Mn 56.1 kDa) (designed binder)
chain: B1 chain
modifications: maleimide end-functionalized PNIPAM (Mn 56.1 kDa) on the N-terminal Cys; film lightly crosslinked with glutaraldehyde

Key:
streptavidin [1] = biological target: T1, streptavidin (UniProt P22629 37-163, limits assumed); experiment: sandwich assay, SA in 50% blood serum, detection with biotin-HRP and TMB
T1 construct: It was used without a stated label in the sandwich assays; also called SA
Experimental: (§1) Each well was submerged in 1 mL of 1% BSA in Milli-Q water, and the 12-well plate was incubated at 37° C. for 30 minutes. The wells were rinsed twice by adding 2 mL of Milli-Q water and gently shaking the well plate at 70 rpm for 5 minutes. 1 mL of streptavidin diluted in PBS, urine, or blood serum (prepared as described in the Fluorescent Assays section) containing 0.1% BSA was then added to each well, and the well plate was shaken at 70 rpm for 4 hours at room temperature. Wells were rinsed twice with 2 mL of Milli-Q water then twice with 2 mL of 0.1% BSA in Milli-Q water by shaking at 70 rpm for 5 minutes. After rinsing, wells were submerged in 1 mL of 200 ng/mL biotin-HRP in Milli-Q water containing 0.1% BSA, and the well plate was shaken at 70 rpm for 1 hour at room temperature. Wells were then rinsed with water and 0.1% BSA as described previously. 1 mL of solution from a Pierce TMB substrate kit (Thermo Fisher Scientific) was added to each well, and the well plate was shaken vigorously at 125 rpm for 15 minutes at room temperature. 1 mL of 2M H2SO4 was added to each well, and the absorbance at 450 nm was read using a Tecan Infinite M200 PRO plate reader.
(§2) The general procedure for this proof-of-concept experiment is diagrammed in FIG. 28. Films were first exposed to SA solutions and rinsed to remove unbound analyte. Taking advantage of the strong interaction between SA and biotin, thin films were then submerged in a solution of biotinylated horseradish peroxidase (biotin-HRP). Bound SA was detected colorimetrically through the HRP-mediated oxidation of 3,3′,5,5′-tetramethylbenzidine (TMB). Attempts to perform this assay using mSA2 as the analyte were unsuccessful, even when run on an rcSso7d.SA monolayer.

streptavidin [2] = biological target: T1, streptavidin; experiment: fluorescent binding curve, labeled SA in 50% urine, 4 h; quadratic fit
[3] = biological target: monomeric streptavidin variant mSA2; experiment: apparent Kd (Kd,app); fluorescent binding curve, labeled mSA2 in 50% urine, 4 h; quadratic fit
streptavidin [4] = biological target: T1, streptavidin; experiment: apparent Kd (Kd,app); fluorescent binding curve, labeled SA in 50% blood serum, 4 h; quadratic fit
streptavidin [5] = biological target: T1, streptavidin; experiment: apparent Kd (Kd,app); fluorescent binding curve, labeled SA in PBS, 8 h exposure; quadratic fit
[6] = biological target: monomeric streptavidin variant mSA2; experiment: fluorescent binding assay, labeled mSA2 in 50% urine on thin film, 4 h exposure
Experimental: (§3) The binding function of rcSso7d.SA oligomer-PNIPAM thin films was measured using fluorescently-labeled monomeric streptavidin (mSA2) and fluorescently-labeled streptavidin (SA). Details for the expression, purification, and fluorescent labeling of mSA2 are provided below. Samples were prepared by serial dilution of SA or mSA2 in PBS (pH 7.4), human urine (diluted to 50% v/v in PBS, pH 7.4), or blood serum (obtained as the supernatant by centrifuging whole blood at 1500×g for 10 minutes, then diluted to 50% v/v in PBS, pH 7.4). 0.5 μL drops of solutions containing serially diluted fluorescent mSA2 and fluorescent SA samples in PBS (pH 7.4) were gently applied to the surface of each bioconjugate thin film. Films were incubated in a sealed chamber saturated with water vapor at room temperature to prevent to prevent drying of the applied fluorescent samples. […] Fluorescence microscopy images were acquired at 4× magnification using a Cy5 filter set and exposure time of 5000 ms on an Olympus IX-81 inverted fluorescence microscope with an AxioCam HRC CCD camera. Fluorescent intensity was calculated using ImageJ software⁶⁷ by determining the average fluorescent signal in a rectangular area of the fluorescent image free of defects and occupying no less than half of the full sample application area.
(§4) To evaluate how the apparent size-based diffusion properties translated to biosensing capabilities, binding curves were measured using SA and mSA2 solutions in buffer. Binding curves were fit with a quadratic model that is a function of three parameters: the average MFI per binding event a, the total concentration of binding sites [P]T, and the apparent dissociation constant K_{d,app} describing the binding equilibrium between analyte and binding sites within the thin film.

streptavidin [7] = biological target: T1, streptavidin; experiment: fluorescent binding assay, labeled SA in 50% blood serum on thin film, 4 h exposure
BSA = biological target: T2, BSA (bovine, UniProt P02769); experiment: fluorescence of Alexa Fluor 488-labeled BSA retained in a 144 nm 3xSP77.6k thin film after rinsing with water for 0-30 s
T2 construct: full protein, fluorescently labeled; non-specific retention control; also called BSA labeled with Alexa Fluor 488

[8] = biological target: monomeric streptavidin variant mSA2; experiment: fluorescent binding curve, labeled mSA2 in 50% urine, 4 h; quadratic fit
streptavidin [9] = biological target: T1, streptavidin; experiment: sandwich assay: SA in 50% blood serum, biotin-HRP/TMB detection
Experimental: as §1, §2

streptavidin [10] = biological target: T1, streptavidin; experiment: fluorescent binding curve fits, labeled SA in PBS, 30 min exposure
Experimental: as §3, with “film.” for “film. Films were incubated in a sealed chamber saturated with water vapor at room temperature to prevent to prevent drying of the applied fluorescent samples.”
(§5) To evaluate how the apparent size-based diffusion properties translated to biosensing capabilities, binding curves were measured using SA and mSA2 solutions in buffer. […]

streptavidin [11] = biological target: T1, streptavidin; experiment: fluorescent binding assay, labeled SA in 50% urine on thin film, 4 h exposure
[12] = biological target: monomeric streptavidin variant mSA2; experiment: fluorescent binding curve, labeled mSA2 in 50% blood serum, 4 h; quadratic fit
streptavidin [13] = biological target: T1, streptavidin; experiment: sandwich assay, SA in PBS, detection with biotin-HRP and TMB, absorbance at 450 nm
Experimental: as §1
The general procedure for this proof-of-concept experiment is diagrammed in FIG. 28. […] Bound SA was detected colorimetrically through the HRP-mediated oxidation of 3,3′,5,5′-tetramethylbenzidine (TMB). […]

streptavidin [14] = biological target: T1, streptavidin; experiment: sandwich assay: SA in 50% urine, biotin-HRP/TMB detection
Experimental: as §1, §2

[15] = biological target: monomeric streptavidin variant mSA2; experiment: apparent Kd (Kd,app); fluorescent binding curve, labeled mSA2 in 50% blood serum, 4 h; quadratic fit
streptavidin [16] = biological target: T1, streptavidin; experiment: apparent Kd (Kd,app); fluorescent binding curve, labeled SA in PBS, 4 h exposure; quadratic fit
streptavidin [17] = biological target: T1, streptavidin; experiment: fluorescent binding curve, labeled SA in 50% blood serum, 4 h; quadratic fit
streptavidin [18] = biological target: T1, streptavidin; experiment: apparent Kd (Kd,app); fluorescent binding curve, labeled SA in 50% urine, 4 h; quadratic fit
streptavidin [19] = biological target: T1, streptavidin; experiment: fluorescent binding curve, labeled SA in 50% blood serum, 4 h
Experimental: as §3, with “film.” for “film. Films were incubated in a sealed chamber saturated with water vapor at room temperature to prevent to prevent drying of the applied fluorescent samples.”
as §5

[20] = biological target: monomeric streptavidin variant mSA2; experiment: fluorescent binding assay, labeled mSA2 in 50% blood serum on thin film, 4 h exposure
Experimental: as §3, §4

streptavidin [21] = biological target: T1, streptavidin; experiment: fluorescent binding curve, labeled SA in PBS, 4 h exposure; quadratic fit
streptavidin [22] = biological target: T1, streptavidin; experiment: apparent Kd (Kd,app); fluorescent binding curve, labeled SA in PBS, 0.5 h exposure; quadratic fit
[23] = biological target: monomeric streptavidin variant mSA2; experiment: fluorescent binding curves, labeled mSA2 in 50% urine or 50% blood serum, 4 h
[24] = biological target: monomeric streptavidin variant mSA2; experiment: fluorescent binding curve, labeled mSA2 in PBS, 4 h exposure
Experimental: as §3, with “film.” for “film. Films were incubated in a sealed chamber saturated with water vapor at room temperature to prevent to prevent drying of the applied fluorescent samples.”
as §5

[25] = biological target: monomeric streptavidin variant mSA2; experiment: apparent Kd (Kd,app); fluorescent binding curve, labeled mSA2 in PBS, 4 h exposure; quadratic fit
Experimental: as §3, §4

[26] = biological target: monomeric streptavidin variant mSA2; experiment: fluorescent binding curve, labeled mSA2 in PBS, 4 h exposure; quadratic fit
Experimental: as §3, §4

streptavidin [27] = biological target: T1, streptavidin; experiment: fluorescent binding curve, labeled SA in PBS, 30 min exposure
Experimental: as §3, with “film.” for “film. Films were incubated in a sealed chamber saturated with water vapor at room temperature to prevent to prevent drying of the applied fluorescent samples.”
as §5

streptavidin [28] = biological target: T1, streptavidin; experiment: fluorescent binding curve, labeled SA in PBS, 4 h exposure
Experimental: as §3, with “film.” for “film. Films were incubated in a sealed chamber saturated with water vapor at room temperature to prevent to prevent drying of the applied fluorescent samples.”
as §5

[29] = biological target: monomeric streptavidin variant mSA2; experiment: apparent Kd (Kd,app); fluorescent binding curve, labeled mSA2 in PBS, 0.5 h exposure; quadratic fit
[30] = biological target: monomeric streptavidin variant mSA2; experiment: fluorescent binding curve fits, labeled mSA2 in PBS
Experimental: The binding function of rcSso7d.SA oligomer-PNIPAM thin films was measured using fluorescently-labeled monomeric streptavidin (mSA2) and fluorescently-labeled streptavidin (SA). Details for the expression, purification, and fluorescent labeling of mSA2 are provided below. Samples were prepared by serial dilution of SA or mSA2 in PBS (pH 7.4), human urine (diluted to 50% v/v in PBS, pH 7.4), or blood serum (obtained as the supernatant by centrifuging whole blood at 1500×g for 10 minutes, then diluted to 50% v/v in PBS, pH 7.4). […] After 1 hour, films were thoroughly rinsed with water for 10 seconds (a time determined to be sufficient to remove unbound molecules from the film, see FIG. 33, dried under filtered airflow, and immediately analyzed for fluorescent signal. Fluorescence microscopy images were acquired at 4× magnification using a Cy5 filter set and exposure time of 5000 ms on an Olympus IX-81 inverted fluorescence microscope with an AxioCam HRC CCD camera. Fluorescent intensity was calculated using ImageJ software⁶⁷ by determining the average fluorescent signal in a rectangular area of the fluorescent image free of defects and occupying no less than half of the full sample application area.
as §5

[31] = biological target: monomeric streptavidin variant mSA2; experiment: apparent Kd (Kd,app); fluorescent binding curve, labeled mSA2 in PBS, 8 h exposure; quadratic fit
Experimental: as §3, with “film.” for “film. Films were incubated in a sealed chamber saturated with water vapor at room temperature to prevent to prevent drying of the applied fluorescent samples.”
as §5

T1 sequence (P22629 37-163 limits assumed): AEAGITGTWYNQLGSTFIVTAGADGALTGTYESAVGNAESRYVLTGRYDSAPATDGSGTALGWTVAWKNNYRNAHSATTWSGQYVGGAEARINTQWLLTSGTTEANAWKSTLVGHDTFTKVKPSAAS
T2 sequence (P02769 25-607 limits assumed): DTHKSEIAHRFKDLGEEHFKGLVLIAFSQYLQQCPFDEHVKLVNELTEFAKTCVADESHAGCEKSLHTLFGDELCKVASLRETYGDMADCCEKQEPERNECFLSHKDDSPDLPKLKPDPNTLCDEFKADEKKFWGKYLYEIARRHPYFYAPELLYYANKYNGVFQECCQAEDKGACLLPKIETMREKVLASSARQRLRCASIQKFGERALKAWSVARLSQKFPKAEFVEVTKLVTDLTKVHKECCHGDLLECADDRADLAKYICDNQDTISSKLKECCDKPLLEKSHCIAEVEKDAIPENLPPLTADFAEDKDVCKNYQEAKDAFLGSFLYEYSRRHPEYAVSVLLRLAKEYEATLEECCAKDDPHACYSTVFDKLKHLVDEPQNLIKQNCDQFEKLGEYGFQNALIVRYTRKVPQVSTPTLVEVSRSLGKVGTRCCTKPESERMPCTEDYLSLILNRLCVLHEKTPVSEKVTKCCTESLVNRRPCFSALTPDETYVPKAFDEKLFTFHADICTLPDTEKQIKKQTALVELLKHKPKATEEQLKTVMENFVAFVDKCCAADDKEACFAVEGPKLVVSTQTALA

| Binder | LOD relative to rcSso7d.SA monolayer (streptavidin [1]) [fold] | [P]T (total concentration of binding sites) (streptavidin [2]) [nM] | Kd [3] [µM] | Kd (streptavidin [4]) [µM] | Limit of Detection [6] [nM] | Limit of Detection (streptavidin [7]) [nM] | [P]T (total concentration of binding sites) [8] [nM] | LOD (streptavidin [9]) [nM] | Limit of Detection (streptavidin [11]) [nM] | [P]T (total concentration of binding sites) [12] [nM] | LOD (streptavidin [14]) [nM] | Kd [15] [µM] | Kd (streptavidin [16]) [µM] | [P]T (total concentration of binding sites) (streptavidin [17]) [nM] | Kd (streptavidin [18]) [µM] | Limit of Detection [20] [nM] | [P]T (total concentration of binding sites) (streptavidin [21]) [nM] | Kd (streptavidin [22]) [µM] | LOD relative to rcSso7d.SA monolayer [23] | reduction in LOD relative to rcSso7d.SA monolayer [24] [fold] | other results |
| --- | --- | --- | --- | --- | --- | --- | --- | --- | --- | --- | --- | --- | --- | --- | --- | --- | --- | --- | --- | --- | --- |
| B1 | 2 | 0.3 | 31 | 40 | 14 | 420 | 15 | 85 | 800 | 4.5 | 33 | 35 | 17 | 0.6 | 50 | 56 | 0.41 | 80 | 2 orders of magnitude lower |  | Kd (streptavidin [5]): 15 µM; binding result (BSA): no binding (tested: 10 µM); binding sites accessed relative to the 3×SP9.6k film (streptavidin [10]): ~4 fold; LOD relative to rcSso7d.SA monolayer (streptavidin [13]): ~2 fold; reduction in LOD relative to rcSso7d.SA monolayer (streptavidin [19]): ~2 fold |
| B2 | 2 | 0.26 | 26 | 50 | 9.8 | 1700 | 17 | 87 | 1300 | 9.4 | 39 | 12.2 | 40 | 0.27 | 30 | 10.5 | 0.9 | 60 | 2 orders of magnitude lower | 10 | Kd [25]: 3.7 µM; [P]T (total concentration of binding sites) [26]: 0.7 nM; sensitivity relative to rcSso7d.SA monolayer (streptavidin [27]): > 10 fold; sensitivity relative to rcSso7d.SA monolayer (streptavidin [28]): ~2 fold; Kd [29]: 11 µM |
| B3 |  |  |  |  |  |  |  |  |  |  |  |  |  |  |  |  |  |  |  | ~4 | accessible binding sites relative to the 3×SP9.6k film [30]: > 4 fold; Kd [25]: 16 µM; [P]T (total concentration of binding sites) [26]: 3.2 nM; Kd [31]: 13 µM; Kd [29]: 33 µM |
